Measurements taken from US20250122306A1 (SUTRO BIOPHARMA, published 2025).

T1: cynomolgus tissue factor (cynomolgus TF, Sino Bio #90885-C08H) (cynomolgus monkey, UniProt P13726 33-251 (human entry))
T1 construct: bought recombinant antigen; also called cyno TF
T1 chain: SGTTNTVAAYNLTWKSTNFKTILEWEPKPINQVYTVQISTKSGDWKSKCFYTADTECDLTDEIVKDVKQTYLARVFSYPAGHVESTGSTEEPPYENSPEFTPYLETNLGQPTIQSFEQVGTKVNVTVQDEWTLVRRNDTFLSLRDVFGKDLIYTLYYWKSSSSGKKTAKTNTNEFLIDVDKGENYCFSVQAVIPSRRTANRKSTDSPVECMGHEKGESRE

B1: SRP2901-B05 (antibody, V domains shown)
VH: QVQVQESGPGLVKPPGTLSLTCAVSGFSLSYYGVSWVRQPPGKGLEWIGTIDSSGRTYYNPSLKSRVTISNDNAPNTVSLKLSSVTAADTAVYYCARDFYGWNSGALDIWGQGTLVTVSS
VL: DLQLTQSPSTLSASVGDRVTITCRASQSVYSNKYLSWYQQKPGKAPKLLIYKASTLASGVPSRFSGSGSGTEFTLTISSLQPDDFATYYCAAAYSDDSDTAFGQGTKVEIK
notes: humanized rabbit antibody, variable regions fused to human IGHG1 and IGKC; also called 2842-G04 HC2/LC2
B2: Conjugate 7: 2900-A02 F241/F404 LP2 (antibody, human IgG1, kappa)
heavy: MEVQLVESGGGLVQPGGSLRLSCAASGFTISGYIIHWVRQAPGKGLEWVGYIDPSNGYTYYADSVKGRFTISADTSKNTAYLQMNSLRAEDTAVYYCARDDQSLSSPFDYWGQGTLVTVSSASTKGPSVFPLAPSSKSTSGGTAALGCLVKDYFPEPVTVSWNSGALTSGVHTFPAVLQSSGLYSLSSVVTVPSSSLGTQTYICNVNHKPSNTKVDKKVEPKSCDKTHTCPPCPAPELLGGPSVLFPPKPKDTLMISRTPEVTCVVVDVSHEDPEVKFNWYVDGVEVHNAKTKPREEQYNSTYRVVSVLTVLHQDWLNGKEYKCKVSNKALPAPIEKTISKAKGQPREPQVYTLPPSREEMTKNQVSLTCLVKGFYPSDIAVEWESNGQPENNYKTTPPVLDSDGSFLYSKLTVDKSRWQQGNVFSCSVMHEALHNHYTQKSLSLSPGK
light: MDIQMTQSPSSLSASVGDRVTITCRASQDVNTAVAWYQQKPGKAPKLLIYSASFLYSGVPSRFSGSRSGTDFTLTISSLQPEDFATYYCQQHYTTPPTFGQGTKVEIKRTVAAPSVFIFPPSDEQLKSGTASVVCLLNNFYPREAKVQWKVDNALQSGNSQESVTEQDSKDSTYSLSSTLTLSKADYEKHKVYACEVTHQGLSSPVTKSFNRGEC
modifications: pAMF at F241 and F404 (EU), each linked to LP2 (DBCO-beta-Glucuronide-PEG12-Exatecan)
notes: antibody-drug conjugate, DAR about 4; also called Trastuzumab LC SerOpt
B3: SRP2901-D03 (antibody, V domains shown)
VH: EVQLVESGGGLVQPGGSLRLSCAASGFSISSYDMSWVRQAPGKGLEWIGIIGSNGRTYYPDSVKGRFTISRDNSKNTVTLQMNSLRAEDTAVYYCARGLYDGTGNIWGQGTLVTVSS
VL: DLQMTQSPSSLSASVGDRVTITCRASQSVYGNNWLSWYQQKPGKAPKLLIYGASKLASGVPSRFSGSGSGTQFTLTISSLQPEDFATYYCQGTYYSGDWYFAFGQGTKVEIK
notes: humanized rabbit antibody, variable regions fused to human IGHG1 and IGKC; also called 2842-B01 HC3/LC1
B4: 2842-B01 HC1/LC2 (antibody, V domains shown)
VH: QVQVVESGGGLVKPGGSLRLSCAASGFSISSYDMSWIRQAPGKGLEWIGIIGSNGRTYYADSVKGRFTISRNTNENTVYLQMNSLRAEDTAVYYCARGLYDGTGNIWGQGTLVTVSS
VL: ELVMTQSPPTLSLSPGERVTLSCRASQSVYGNNWLSWYQQKPGQAPRLLIYGASKLATSIPARFSGSGSGTQFTLTISSLQPEDFAVYYCQGTYYSGDWYFAFGQGTKVEIK
notes: humanized rabbit antibody, variable regions fused to human IGHG1 and IGKC
B5: SRP2901-E03 (antibody, V domains shown)
VH: EVQLVESGGGLVQPGGSLRLSCAASGFSISSYDMSWVRQAPGKGLEWIGIIGSNGRTYYPDSVKGRFTISRDNSKNTVTLQMNSLRAEDTAVYYCARGLYDGTGNIWGQGTLVTVSS
VL: ELVMTQSPPTLSLSPGERVTLSCRASQSVYGNNWLSWYQQKPGQAPRLLIYGASKLATSIPARFSGSGSGTQFTLTISSLQPEDFAVYYCQGTYYSGDWYFAFGQGTKVEIK
notes: humanized rabbit antibody, variable regions fused to human IGHG1 and IGKC; also called 2842-B01 HC3/LC2
B6: SRP2901-F01 (antibody, V domains shown)
VH: QVQVVESGGGLVKPGGSLRLSCAASGFSISSYDMSWIRQAPGKGLEWIGIIGSNGRTYYADSVKGRFTISRNTNENTVYLQMNSLRAEDTAVYYCARGLYDGTGNIWGQGTLVTVSS
VL: DIQMTQSPSSLSASVGDRVTITCQASQSVYGNNWLSWYQQKPGKAPKLLIYGASKLASGVPSRFSGSGSGTDFTLTISSLQPEDFATYYCQGTYYSGDWYFAFGGGTKVEIK
notes: humanized rabbit antibody, variable regions fused to human IGHG1 and IGKC; also called 2842-B01 HC1/LC3

What was measured:
[1] = molecular target: tissue factor reagent of the Tissue Factor Activity Assay Kit (Abcam #ab108906) (UniProt P13726 33-295, limits assumed); test: cell-based or functional assay
[2] = molecular target: T2, human tissue factor on cells (human, UniProt P13726 33-295); test: flow cytometry on BxPC3 cells (TF positive), one-site fit of MFI
T2 construct: cell-surface TF, transfected (HEK293T-humanTF) or endogenous (tumour lines, keratinocytes); the cell line is named under assay; also called HEK293T-humanTF; TF on BxPC3, primary human keratinocytes, NCI-H292, HCC1954, NCI-H1975
From the text: HEK293T, BxPC3 cells (TF positive) and NCI-H1703 (TF negative) cells were obtained from ATCC (American Type Culture Collection) and maintained in DMEM: F12 (1:1), high glucose (Corning) supplemented with 10% heat-inactivated fetal bovine serum (ThermoScientific), 1× Penicillin/Streptomycin (Corning) and 2 mmol glutamax (Thermo Fisher Scientific). To generate cells that stably expressing human tissue factor (HEK293T-humanTF) or cynomolgus tissue factor (HEK293T-cynoTF), HEK293T cells were transfected with plasmid vectors that contain the corresponding protein sequence and stable clones were selected with puromycin.
For a fluorescence-activated cell sorting (FACS) cell-binding assay, cells were collected by Accutase and counted by the Vi-CELL Cell Viability Analyzersharvested and, then re-suspended in FACS buffer (DPBS buffer supplemented with 1% bovine serum albumin). A total of 200,000 cells in 100 μL were incubated on ice with 100 μL of anti-TF antibodies in each well of a 96-well plate. Cells were washed twice with ice-cold FACS buffer and then incubated on ice for 60 mins with 5 μg/mL Alexa 647-labeled donkey anti-human Fc antibody (Jackson ImmunoResearch). Unstained cells and cells stained with secondary antibody alone were used as controls. Cells were washed twice with FACS buffer and analyzed using a BD FACS Canto system. Geometric mean fluorescence intensities (MFI) were fitted using non-linear regression analysis with one site specific binding equation on GraphPad Prism (GraphPad Software; La Jolla, CA).

[3] = molecular target: T3, human tissue factor (human TF, Lake Pharma) (human, UniProt P13726 33-251, limits assumed); test: Biacore SPR, single-point off-rate (100 nM antigen), antibody captured on anti-Fc
T3 construct: bought recombinant antigen; also called CD142
Experimental: (§1) Anti-Fc polyclonal antibodies were immobilized onto a CM4 chip (Cytiva #BR100534) using amine coupling chemistry (Human Antibody Capture Kit, Cytiva #BR100839). The immobilization steps were carried out at a flow rate of 25 μL/min in 1×HBS-EP+buffer (Cytiva #BR100669). The sensor surfaces were activated for 7 min with a mixture of N-hydroxysuccinimide (NHS, 0.05 M) and 1-ethyl-3-(3-dimethylaminopropyl)-carbodiimide (EDC, 0.2 M). The anti-Fc polyclonal antibodies were injected over all 4 flow cells at a concentration of 25 μg/mL in 10 mM sodium acetate, pH 4.5, for 7 min. Ethanolamine (1 M, pH 8.5) was injected for 7 min to block any remaining activated groups.
(§2) Off-rate and kinetic binding experiments were performed at 25° C. using 1×HBS-EP+buffer. Antibodies were injected over the anti-Fc surface at a concentration of 3 μg/mL for 12 seconds at a flow rate of 10 μL/min on flow cells 2, 3 and 4, followed by a buffer wash for 30 seconds at the same flow rate. Single point off-rate analysis was carried out using an antigen concentration of 100 nM. […] After capturing ligand (antibody) on the anti-Fc surface, the analyte (human TF, Lake Pharma; cynomolgus TF, Sino Bio #90885-C08H; mouse TF, R&D Systems #3178-PA) was bound for 180 seconds, followed by a 420 second dissociation phase at a flow rate of […]. Between each ligand capture and analyte binding cycle, regeneration was carried out using 2 injections of 10 mM glycine pH 2.0 for 30 seconds at 30 μL/min, followed by a 30 second buffer wash step.

[4] = molecular target: T1, cynomolgus tissue factor (cynomolgus …); test: as above
Experimental: as §1, §2

[5] = molecular target: T3, human tissue factor (human TF, Lake …); test: Biacore SPR kinetics, ADC captured on anti-Fc, 1:1 Langmuir fit
Experimental: (§3) Anti-Fc polyclonal antibodies were immobilized onto a CM4 chip (Cytiva #BR100534) using amine coupling chemistry (Human Antibody Capture Kit, Cytiva #BR100839). The immobilization steps were carried out at a flow rate of […] in 1×HBS-EP+buffer (Cytiva #BR100669). The sensor surfaces were activated for 7 min with a mixture of NHS (0.05 M) and EDC (0.2 M). The Anti-Fc antibodies were injected over all 4 flow cells at a concentration of 25 μg/ml in 10 mM sodium acetate, pH 4.5, for 7 min. Ethanolamine (1 M, pH 8.5) was injected for 7 min to block any remaining activated groups. […] Off-rate and kinetic binding experiments were performed at 25° C. using 1×HBS-EP+buffer. Antibodies or ADCs were injected over the anti-Fc surface at a concentration of 3 μg/mL for 12 seconds at a flow rate of 10 μL/min on flow cells 2, 3 and 4, followed by a buffer wash for 30 seconds at the same flow rate. […] After capturing ligand (antibody) on the anti-Fc surface, the analyte (human TF, Lake Pharma; cynomolgus TF, Sino Bio #90885-C08H; mouse TF, R&D Systems #3178-PA) was bound for 180 seconds, followed by a 420 second dissociation phase at a flow rate of 50 μL/min. Between each ligand capture and analyte binding cycle, regeneration was carried out using 2 injections of 10 mM Glycine pH 2.0 for 30 seconds at 30 μL/min, followed by a 30 second buffer wash step. The data was fit with the Biacore T200 Evaluation software, using a 1-1 Langmuir binding model. KD (affinity, nM) was determined as a ratio of the kinetic rate constants calculated from the fits of the association and dissociation phases.

[6] = molecular target: T1, cynomolgus tissue factor (cynomolgus …); test: as above
Experimental: as §3

Chain of tissue factor reagent of the Tissue Factor Activity Assay Kit (Abcam #ab108906) (P13726 33-295 limits assumed): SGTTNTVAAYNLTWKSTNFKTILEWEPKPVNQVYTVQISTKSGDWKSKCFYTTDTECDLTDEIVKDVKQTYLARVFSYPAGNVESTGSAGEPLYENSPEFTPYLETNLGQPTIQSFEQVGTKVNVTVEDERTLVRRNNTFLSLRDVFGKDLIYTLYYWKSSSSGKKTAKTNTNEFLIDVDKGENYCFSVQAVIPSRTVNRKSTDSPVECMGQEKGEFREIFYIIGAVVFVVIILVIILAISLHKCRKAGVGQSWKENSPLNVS
T2 sequence (P13726 33-295 limits assumed): as above

Binder	FX conversion (% inhibition), 1000 nM antibody [1] [%]	Bmax (MFI) [2] [MFI]	Kd [2] [nM]	koff [3] [s⁻¹]	koff [4] [s⁻¹]	Kd [5] [nM]	koff [5] [s⁻¹]	kon [5] [M⁻¹ s⁻¹]	Kd [6] [nM]	koff [6] [s⁻¹]	kon [6] [M⁻¹ s⁻¹]
B1	0.62	42800	0.389	0.000736	0.0017						
B2						4.11	0.00209	508000	1.77	0.00103	582000
B3	-1.6	29100	0.344	0.000416	0.00187						
B4	-0.99			0.000691	0.00142						
B5	-0.84	35200	0.386	0.000361	0.000782						
B6	0.77	25400	0.61	0.00054	0.00117						
